We go through three molecules from patent US20200247886A1 (ZLIP, published 2020).

Assay [1] concerns the target T1, His-tagged CD47 (Homo sapiens (Human), UniProt Q08722 19-139, limits assumed).
T1 construct: not shown: His tag
The experiment in a line: IC50 (nM) Frequency as grade, blocking His-tagged CD47 binding to SIRPα-CHO cells; legend ++: >2 nM and <2.7 nM.

In assay [2] the target is T2, human CD47 expressed on cells (CD47 expressing CHO cells, Jurkat, HL60, DLD1, Raji) (human, UniProt Q08722 19-292).
T2 construct: also called CHO-CD47; IAP
The experiment in a line: EC50 (nM) as grade, flow cytometry, Fab on DLD1 cells; legend +++: <5 nM. (In general: A flow cytometer gives signals particle by particle.)

In assay [3] the target is T2, human CD47 expressed on cells (CD47 …). The experiment in a line: EC50 (nM) as grade, flow cytometry, Fab on HL60 cells; legend ++: >1 nM and <7 nM.
The target in assay [4] is T1, His-tagged CD47. The experiment in a line: flow cytometry blocking assay: His-tagged CD47 with Fab on SIRPα-expressing CHO cells (SIRPα is the blocked ligand), anti-His-APC, MFI.
Assay [5] deals with T3, biotin labelled polyhistidine tagged CD47 protein (Novoprotein, Cat#321) (human, UniProt Q08722 19-139, biotin labelled (site not stated)).
T3 construct: Bought protein; also called biotinylated CD47; biotinylated human CD47 protein; not shown: polyhistidine tag
The experiment in a line: IC50 (nM) as grade, Fab blocking biotinylated CD47 binding to SIRPα-CHO cells; legend +++: <10 nM.

Assay [6] concerns the target T3, biotin labelled polyhistidine tagged …. The experiment in a line: flow cytometry blocking assay: biotinylated CD47 with Fab on SIRPα-expressing CHO cells (SIRPα is the blocked ligand), frequency.
Assay [7] addresses T1, His-tagged CD47. The experiment in a line: IC50 (nM) MFI as grade, blocking His-tagged CD47 binding to SIRPα-CHO cells; legend +++: <2 nM.
Assay [8] has as its target T2, human CD47 expressed on cells (CD47 …). The experiment in a line: flow cytometry on DLD1 cells, Fab, frequency.
Assay [9] deals with T1, His-tagged CD47. The experiment in a line: flow cytometry blocking assay: His-tagged CD47 with Fab on SIRPα-expressing CHO cells (SIRPα is the blocked ligand), anti-His-APC, frequency.
Assay [10] has as its target T2, human CD47 expressed on cells (CD47 …). The experiment in a line: flow cytometry on HL60 cells, Fab, frequency.
Assay [11] has the same target. The experiment in a line: EC50 (nM) as grade, flow cytometry, Fab on HL60 cells; legend +: >7 nM.
For assay [12], the target named is T3, biotin labelled polyhistidine tagged …. The experiment in a line: IC50 (nM) as grade, Fab blocking biotinylated CD47 binding to SIRPα-CHO cells; legend ++: >10 nM and <65 nM.
Assay [13] addresses T2, human CD47 expressed on cells (CD47 …). The experiment in a line: flow cytometry on human red blood cells, donor 1, MFI.
Assay [14] concerns the target T1, His-tagged CD47. The experiment in a line: IC50 (nM) MFI as grade, blocking His-tagged CD47 binding to SIRPα-CHO cells; legend +: >2.7 nM.
The target in assay [15] is T2, human CD47 expressed on cells (CD47 …). The experiment in a line: flow cytometry blocking assay on Raji cells, SIRPα is the blocked ligand, MFI.
For assay [16], the target named is T3, biotin labelled polyhistidine tagged …. The experiment in a line: flow cytometry blocking assay: antibody mixed with biotinylated human CD47 protein; blocked ligand SIRPα on cells; binding percentage.
Assay [17] addresses T2, human CD47 expressed on cells (CD47 …). The experiment in a line: IC50 (nM) MFI as grade, blocking biotinylated SIRPa-Fc binding to DLD1 cells; legend +++: <1 nM.
For assay [18] the target is unchanged. The experiment in a line: IC50 (nM) Frequency as grade, blocking biotinylated SIRPa-Fc binding to DLD1 cells; legend ++: >1 nM and <20 nM.
The target is the same in assay [19]. The experiment in a line: IC50 as grade, SIRPα blocking on Raji cells; legend +++: <1 nM.
The target is the same in assay [20]. The experiment in a line: flow cytometry on human red blood cells, donor 2, MFI.
The target is the same in assay [21]. The experiment in a line: flow cytometry blocking assay on Raji cells, SIRPα is the blocked ligand, MFI. This is another data set of the same source.
Assay [22] has the same target. The experiment in a line: flow cytometry on human platelets, donor 2, MFI.
The target is the same in assay [23]. The experiment in a line: IC50 as grade, SIRPα blocking on Raji cells (second part of the table); legend +++: <1 nM.
Assay [24] shares this target. The experiment in a line: flow cytometry on DLD1 cells, IgG, MFI.
For assay [25] the target is unchanged. The experiment in a line: flow cytometry SIRP-alpha blocking assay on Raji cells, MFI.
Assay [26] shares this target. The experiment in a line: flow cytometry blocking assay: 100 nM biotinylated SIRPa-Fc (blocked ligand) on DLD1 cells expressing CD47, frequency.
Assay [27] has the same target. The experiment in a line: flow cytometry on CD47 expressing CHO cells, MFI (FL-4).
The target is the same in assay [28]. The experiment in a line: flow cytometry blocking assay: 100 nM biotinylated SIRPa-Fc (blocked ligand) on DLD1 cells expressing CD47, MFI.
Assay [29] has as its target T1, His-tagged CD47. The experiment in a line: IC50 (nM) Frequency as grade, blocking His-tagged CD47 binding to SIRPα-CHO cells; legend +: >2.7 nM.
Assay [30] concerns the target T2, human CD47 expressed on cells (CD47 …). The experiment in a line: flow cytometry on DLD1 cells, IgG, frequency.

Positions count from the first letter of the chain named.

B1: ABU9 (Fab) (Fab, V domains shown)
VH: EVQLQQSGPELVKPGASVKLSCKASGFTFTNYYIHWVKQRPGQGPEWIGWIYLGSGNTKYNEKFKGKATLTADTSSSTAYLQLSTLISEDSAVYYCARYDYDLYLDSWGQGTTVTVSS
VL: DIKMNQSPSSLSASLGDTITITCHASQNINVWLSWYQQKPGNIPKLLIYKASNLHTGVPSRFSGSGSGTGFTLTISSLQPEDIATYYCQQGQSYPLTFGAGTKLELK
notes: Phage-derived Fab: murine VL and VH fused to human CL and CH1
In the case of B1, the IC50 (commonly the concentration that gives 50% inhibition) with His-tagged CD47 [1] is 2 to 2.7 nM; in assay [5] it was under 10 nM; in the assay with His-tagged CD47 [7] it was under 2 nM. For the same molecule, the EC50 (usually the concentration that produces a half-maximal response) in [2] is under 5 nM; in assay [3], 1 to 7 nM. The “IC50 (read off the curve)” value is about 2 nM with His-tagged CD47 [4], about 9 nM in [6] and about 3 nM with His-tagged CD47 [9]. Also, the results for the “EC50 (read off the curve)” value in assay [8] and in assay [10] were about 2 nM and about 6 nM, respectively.

B2: ABU14 (Fab) (Fab, V domains shown)
VH: EVQLQQSGPELVKPGASVKISCKASGYSFTNYHIHWVKQRPGQGLEWIGWIYPGSGNTKYNEKFKGMAILTADTSSSTAYMQLSSLTSEDSAVYYCARYDYDLYLHSWGQGTTVTVSS
VL: B1 VL with K3Q, M4I, L106I
notes: as for B1
Turning to B2, the IC50 in the assay with His-tagged CD47 [1] was 2 to 2.7 nM; with His-tagged CD47 [7], under 2 nM; in assay [12], 10 to 65 nM. Also, the EC50 in assay [2] was under 5 nM; in assay [11], over 7 nM. The “IC50 (read off the curve)” value in the assay with His-tagged CD47 [4] was about 2 nM; in assay [6], about 20 nM; in the assay with His-tagged CD47 [9] it was about 3 nM. The EC50 (read off the curve) (in general, the concentration needed to bring the measured effect to its halfway point) in [8] is about 4 nM; in [10], about 10 nM.

B3: Positive 3 (analogue antibody) (antibody, V domains shown)
VH: QMQLVQSGAEVKKTGSSVKVSCKASGFNIKDYYLHWVRQAPGQALEWMGWIDPDQGDTEYAQKFQDRVTITRDRSMSTAYMELSSLRSEDTAMYYCNAAYGSSSYPMDYWGQGTTVTV
VL: NIQMTQSPSAMSASVGDRVTITCKASQDIHRYLSWFQQKPGKVPKHLIYRANRLVSGVPSRFSGSGSGTEFTLTISSLQPEDFATYYCLQYDEFPYTFGGGTKVEIK
For the molecule B3, the “EC50 (read off the curve)” value is about 1 nM in assay [13]; about 1 nM in assay [20]; about 0.6 nM in assay [22]; about 0.6 nM in [24]; about 1 nM in assay [27]; about 0.07 nM in [30]. The IC50 in the assay with His-tagged CD47 [14] is over 2.7 nM; in assay [17] it was under 1 nM; in assay [18], 1 to 20 nM; in assay [19], under 1 nM; in assay [23] it was under 1 nM; with His-tagged CD47 [29] it was over 2.7 nM. Moreover, the “IC50 (read off the curve)” value in [15] was about 0.9 nM; in assay [16] it was about 1 nM; with His-tagged CD47 [4], about 3 nM; in assay [21], about 0.6 nM; in [25], about 0.6 nM; in assay [26] it was about 1 nM. For the same molecule, the “IC50 (read off the curve)” value in assay [28] was about 0.3 nM; with His-tagged CD47 [9], about 3 nM.
